Residue numbers refer to the chain shown, from its start. Numbers in names are those of the source. Each block holds one binder with its values, some of them ahead of it.
Target: T1, LTBR (form used for the KD not stated) (human, UniProt P36941 31-227, limits assumed)
T1 construct: neither the method nor the LTBR construct is described; also called human LTBR; TNFRSF3
Test: method not stated; stapled scFv variant against LTBR

T1 sequence (P36941 31-227 limits assumed): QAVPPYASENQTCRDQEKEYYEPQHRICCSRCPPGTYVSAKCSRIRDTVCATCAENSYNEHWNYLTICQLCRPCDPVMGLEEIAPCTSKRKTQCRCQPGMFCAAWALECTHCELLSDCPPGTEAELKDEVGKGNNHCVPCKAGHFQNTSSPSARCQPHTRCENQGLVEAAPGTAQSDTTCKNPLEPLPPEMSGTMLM

Kd: ~60 nM
B1: stapled scFv (VL3 Y36F S49Y F87Y) BHA10 (VH-VL) (scFv)
scFv: QVQLVQSGAEVKKPGSSVKVSCKASGYTFTTYYLHWVRQAPGCGLEWMGWIYPGNVHAQYNEKFKGRVTITADKSTSTAYMELSSLRSEDTAVYYCARSWEGFPYWGQGTTVTVSSGGGSGGGSGCPPCGGGGDIQMTQSPSSLSASVGDRVTITCKASQNVGINVAWFQQKPGKAPKSLIYSASYRYSGVPSRFSGSGSGTDFTLTISSLQPEDFATYYCQQYDTYPFTFGCGTKVEIK

Kd: ~600 nM
B2: stapled scFv (VH CDR1 Y33A) BHA10 (VH-VL) (scFv)
scFv: B1 scFv with Y33A, F169Y, Y182S, Y220F

Source: US20210047435A1 (Janssen / Centocor, published 2021)
